Assay results taken from patent publication US9932404B2 (Janssen Biotech, Inc., dated 2018).

B1: mAb 13 (antibody, V domains shown)
VH: QVELVQSGAEVKKPGESLKISCKGSGYSFTNYWVGWVRQMPGKGLEWMGFIDPSDSYTNYAPSFQGQVTISADKSISTAYLQWSSLKASDTAMYYCARELYQGYMDTFDSWGQGTLVTVSS
VL: DIQMTQSPSSLSASVGDRVTITCRASQSIGLYLAWYQQKPGKAPKLLIYAASSLQSGVPSRFSGSGSGTDFTLTISSLQPEDFATYYCQQGESILSTFGQGTKVEIK
B2: mAb 14 (antibody, V domains shown)
VH: QVELVQSGAEVKKPGESLKISCKGSGYSFTNYWVGWVRQMPGKGLEWMGFIDPSDSYTNYAPSFQGQVTISADKSISTAYLQWSSLKASDTAMYYCARELYQGYMDTFDSWGQGTLVTVSS
VL: DIQMTQSPSSLSASVGDRVTITCRASQSIGLYLAWYQQKPGKAPKLLIYAASSLQSGVPSRFSGSGSGTDFTLTISSLQPEDFATYYCQQAETVSPTFGQGTKVEIKR
B3: mAb 19 (antibody, V domains shown)
VH: QVELVQSGAEVKKPGESLKISCKGSGYSFTNYWVGWVRQMPGKGLEWMGFIDPSDSYTNYAPSFQGQVTISADKSISTAYLQWSSLKASDTAMYYCARELYQGYMDTFDSWGQGTLVTVSS
VL: DIQMTQSPSSLSASVGDRVTITCRASQSIGLYLAWYQQKPGKAPKLLIYAASSLQSGVPSRFSGSGSGTDFTLTISSLQPEDFATYYCQQYGSVSITFGQGTKVEIK
B4: mAb 15 (antibody)
heavy: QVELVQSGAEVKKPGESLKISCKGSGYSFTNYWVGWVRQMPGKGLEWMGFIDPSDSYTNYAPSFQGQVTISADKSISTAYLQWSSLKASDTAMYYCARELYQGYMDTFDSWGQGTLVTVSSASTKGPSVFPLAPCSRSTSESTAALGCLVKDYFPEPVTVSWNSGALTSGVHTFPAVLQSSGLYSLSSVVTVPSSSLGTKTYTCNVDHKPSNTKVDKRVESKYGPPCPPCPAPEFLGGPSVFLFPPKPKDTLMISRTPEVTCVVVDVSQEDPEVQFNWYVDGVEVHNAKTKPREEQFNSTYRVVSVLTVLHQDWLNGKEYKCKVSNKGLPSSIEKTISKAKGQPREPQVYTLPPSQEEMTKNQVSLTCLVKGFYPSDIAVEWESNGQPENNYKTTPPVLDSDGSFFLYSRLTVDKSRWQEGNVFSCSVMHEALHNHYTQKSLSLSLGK
light: DIQMTQSPSSLSASVGDRVTITCRASQSIGLYLAWYQQKPGKAPKLLIYAASSLQSGVPSRFSGSGSGTDFTLTISSLQPEDFATYYCQQGNTLSYTFGQGTKVEIKRTVAAPSVFIFPPSDEQLKSGTASVVCLLNNFYPREAKVQWKVDNALQSGNSQESVTEQDSKDSTYSLSSTLTLSKADYEKHKVYACEVTHQGLSSPVTKSFNRGEC
B5: mAb 8 (antibody, V domains shown)
VH: QVELQQSGPGLVKPSQTLSLTCAISGDSVSSNSAAWGWIRQSPGRGLEWLGIIQTRSKWYNDYAVSVKSRITINPDTSKNQFSLQLNSVTPEDTAVYYCARYSYPFYSIDYWGQGTLVTVSS
VL: DIELTQPPSVSVAPGQTARISCSGDNIGSYYVHWYQQKPGQAPVLVIYEDSERPSGIPERFSGSNSGNTATLTISGTQAEDEADYYCQSYDSQFSFGVFGGGTKLTVL
B6: mAb 10 (antibody, V domains shown)
VH: QVELQQSGPGLVKPSQTLSLTCAISGDSVSSNSAAWGWIRQSPGRGLEWLGIIQKRSKWYNNYAVSVKSRITINPDTSKNQFSLQLNSVTPEDTAVYYCARYSYPFYSIDYWGQGTLVTVSS
VL: DIELTQPPSVSVAPGQTARISCSGDNIGSYYVHWYQQKPGQAPVLVIYEDSERPSGIPERFSGSNSGNTATLTISGTQAEDEADYYCQSYDTPVYSVFGGGTKLTVL
B7: mAb 18 (antibody, V domains shown)
VH: QVELQQSGPGLVKPSQTLSLTCAISGDSVSSNSAAWGWIRQSPGRGLEWLGIIQKRSKWYNNYAVSVKSRITINPDTSKNQFSLQLNSVTPEDTAVYYCARYSYPFYSIDYWGQGTLVTVSS
VL: DIELTQPPSVSVAPGQTARISCSGDNIGSYYVHWYQQKPGQAPVLVIYEDSERPSGIPERFSGSNSGNTATLTISGTQAEDEADYYCQSYDSQFSFGVFGGGTKLTVL
B8: mAb 12 (antibody, V domains shown)
V domain 1: QVELQQSGPGLVKPSQTLSLTCAISGDSVSSNSAAWGWIRQSPGRGLEWLGIIQKRSKWYNNYAVSVKSRITINPDTSKNQFSLQLNSVTPEDTAVYYCARYSYPFYSIDYWGQGTLVTVSS
V domain 2: DIELQQSGPGLVKPSQTLSLTCAISGDSVSSNSAAWGWIRQSPGRGLEWLGIIQKRSKWYNNYAVSVKSRITINPDTSKNQFSLQLNSVTPEDTAVYYCARYSYPFYSIDYWGQGTLVTVSS
B9: mAb 9 (antibody, V domains shown)
VH: QVELQQSGPGLVKPSQTLSLTCAISGDSVSSNSAAWGWIRQSPGRGLEWLGIIQIRSKWYNDYALSVKSRITINPDTSKNQFSLQLNSVTPEDTAVYYCARYSYPFYSIDYWGQGTLVTVSS
VL: DIELTQPPSVSVAPGQTARISCSGDNIGSYYVHWYQQKPGQAPVLVIYEDSERPSGIPERFSGSNSGNTATLTISGTQAEDEADYYCQSYDSQFSFGVFGGGTKLTVL
B10: mAb 11 (antibody, V domains shown)
VH: QVELQQSGPGLVKPSQTLSLTCAISGDSVSSNSAAWGWIRQSPGRGLEWLGIIQKRSKWYNNYAVSVKSRITINPDTSKNQFSLQLNSVTPEDTAVYYCARYSYPFYSIDYWGQGTLVTVSS
VL: DIELTQPPSVSVAPGQTARISCSGDNIGSYYVHWYQQKPGQAPVLVIYEDSERPSGIPERFSGSNSGNTATLTISGTQAEDEADYYCSSYDEPNFNVFGGGTKLTVL
B11: mAb 2 (antibody, V domains shown)
VH: QVELVQSGAEVKKPGESLKISCKGSGYSFNNYWIGWVRQMPGKGLEWMGIIDPQDSWTNYAPSFQGQVTISADKSISTAYLQWSSLKASDTAMYYCARNIYEFDYWGQGTLVTVSS
VL: DIQMTQSPSSLSASVGDRVTITCRASQGISSWLNWYQQKPGKAPKLLIYGASNLQSGVPSRFSGSGSGTDFTLTISSLQPEDFAVYYCQQYDDFSITFGQGTKVEIK
B12: mAb 16 (antibody, V domains shown)
VH: QVELVQSGAEVKKPGESLKISCKGSGYSFNNYWIGWVRQMPGKGLEWMGIIDPGDSYTNYAPSFQGQVTISADKSISTAYLQWSSLKASDTAMYYCARNIYEFDYWGQGTLVTVSS
VL: DIQMTQSPSSLSASVGDRVTITCRASQGISSWLNWYQQKPGKAPKLLIYGASNLQSGVPSRFSGSGSGTDFTLTISSLQPEDFAVYYCQQYDDFSITFGQGTKVEIK
B13: mAb 3 (antibody, V domains shown)
VH: QVELQQSGPGLVKPSQTLSLTCAISGDSVSTRSAAWGWIRQSPGRGLEWLGRIHRRSKWYNDYAVSVKSRITINPDTSKNQFSLQLNSVTPEDTAVYYCARHTYPYLSFDVWGQGTLVTVSS
VL: DIELTQPPSVSVAPGQTARISCSGDALGGYFVSWYQQKPGQAPVLVIYDDDNRPSGIPERFSGSNSGNTATLTISGTQAEDEADYYCASYDGDEFTVFGGGTKLTVL
B14: mAb 7 (antibody, V domains shown)
VH: QVELQQSGPGLVKPSQTLSLTCAISGDSVSTRSAAWGWIRQSPGRGLEWLGRIYMRSKWYNDYAVSVKSRITINPDTSKNQFSLQLNSVTPEDTAVYYCARHTYPYLSFDVWGQGTLVTVSS
VL: DIELTQPPSVSVAPGQTARISCSGDALGGYFVSWYQQKPGQAPVLVIYDDDNRPSGIPERFSGSNSGNTATLTISGTQAEDEADYYCSSYDSDSLTVFGGGTKLTVL
B15: mAb 5 (antibody, V domains shown)
VH: QVELQQSGPGLVKPSQTLSLTCAISGDSVSTRSAAWGWIRQSPGRGLEWLGRIYMRSKWYNDYAVSVKSRITINPDTSKNQFSLQLNSVTPEDTAVYYCARHTYPYLSFDVWGQGTLVTVSS
VL: DIELTQPPSVSVAPGQTARISCSGDALGGYFVSWYQQKPGQAPVLVIYDDDNRPSGIPERFSGSNSGNTATLTISGTQAEDEADYYCQSYDEDSATVFGGGTKLTVL
B16: mAb 4 (antibody, V domains shown)
VH: QVELQQSGPGLVKPSQTLSLTCAISGDSVSTRSAAWGWIRQSPGRGLEWLGKISYRSRWYNDYAVSVKSRITINPDTSKNQFSLQLNSVTPEDTAVYYCARHTYPYLSFDVWGQGTLVTVSS
VL: DIELTQPPSVSVAPGQTARISCSGDALGGYFVSWYQQKPGQAPVLVIYDDDNRPSGIPERFSGSNSGNTATLTISGTQAEDEADYYCASYDGDEFTVFGGGTKLTVL
B17: mAb 6 (antibody, V domains shown)
VH: QVELQQSGPGLVKPSQTLSLTCAISGDSVSTRSAAWGWIRQSPGRGLEWLGRIYMRSKWYNDYAVSVKSRITINPDTSKNQFSLQLNSVTPEDTAVYYCARHTYPYLSFDVWGQGTLVTVSS
VL: DIELTQPPSVSVAPGQTARISCSGDALGGYFVSWYQQKPGQAPVLVIYDDDNRPSGIPERFSGSNSGNTATLTISGTQAEDEADYYCGSYDSNSLTVFGGGTKLTVL
B18: mAb 17 (antibody, V domains shown)
VH: QVELQQSGPGLVKPSQTLSLTCAISGDSVSTRSAAWGWIRQSPGRGLEWLGRIYMRSKWYNDYAVSVKSRITINPDTSKNQFSLQLNSVTPEDTAVYYCARHTYPYLSFDVWGQGTLVTVSS
VL: DIELTQPPSVSVAPGQTARISCSGDALGGYFVSWYQQKPGQAPVLVIYDDDNRPSGIPERFSGSNSGNTATLTISGTQAEDEADYYCASYDGDEFTVFGGGTKLTVL
B19: mAb 1 (antibody, V domains shown)
V domain 1: GVELVQSGAEVKKPGESLKISCKGSGYSFTDNWISWVRQAPGKGLEWMGVIDPSDSYTNYAPSFQGQVTISADKSISTAYLQWSSLKASDTAMYYCAREWGIGGMVDIWG
V domain 2: DIVLTQSPATLSLSPGERATLSCRASQYIDISYLAWYQQKPGQAPRLLIYDASSRATGVPARFSGSGSGTDFTLTISSLEPEDFAVYYCQQYYSLSITFGQGTKVEIK
B20: mAb 5429 (antibody, V domains shown)
VH: EVQLVASGGGLVKPGASLKLSCVASGFTFSDYWMAWVRQTPGKPMEYIGDIKSDGSKVNYAPSLKNRFTISRDNARTTLYLQMSNVRSEDTATYYCNRDIGPDWYFDFWGPGTMVTVSS
VL: DIQMTQSPTSLSASLGETVTIECRASEDIYNGLAWYQQKPGKSPQLLIYDSNSLHTGVPSRFSGRGSGTQYSLRINSLQSEDVASYFCQQYYDYPLTFGSGTKLEIKR
B21: mAb 15EVQ (antibody)
heavy: not shown
light: DIQMTQSPSSLSASVGDRVTITCRASQSIGLYLAWYQQKPGKAPKLLIYAASSLQSGVPSRFSGSGSGTDFTLTISSLQPEDFATYYCQQGNTLSYTFGQGTKVEIKRTVAAPSVFIFPPSDEQLKSGTASVVCLLNNFYPREAKVQWKVDNALQSGNSQESVTEQDSKDSTYSLSSTLTLSKADYEKHKVYACEVTHQGLSSPVTKSFNRGEC

molecular target: full length human TLR3 (human); assay: cell-based or functional assay

| % inhibition of poly(I:C)-induced NF-κB luciferase reporter [%] | Binder |
| --- | --- |
| > 50 | B1 |
| > 50 | B2 |
| > 50 | B3 |
| > 50 | B4 |
| > 50 | B5 |
| > 50 | B6 |
| > 50 | B7 |
| > 50 | B8 |
| > 50 | B9 |
| > 50 | B10 |
| > 50 | B11 |
| > 50 | B12 |
| > 50 | B13 |
| > 50 | B14 |
| > 50 | B15 |
| > 50 | B16 |
| > 50 | B17 |
| > 50 | B18 |
| > 50 | B19 |

molecular target: full-length murine TLR3 (mouse); assay: cell-based or functional assay

| IC50, poly(I:C)-induced ISRE luciferase reporter [mg/L] | Binder |
| --- | --- |
| 22 | B4 |
| 0.5 | B20 |

molecular target: cynomolgus TLR3 (cynomolgus, UniProt A0A2K5WT39); assay: cell-based or functional assay

| IC50, ISRE reporter gene assay [mg/L] | IC50, NF-κB reporter gene assay [mg/L] | Binder |
| --- | --- | --- |
| 1.74 | 4.18 | B21 |
